# In US20100113582A1:
# Experiments:
# [1] = biological target: HIV-PRR87K^YFP (HIV-1 (HIV-1NL4-3)) (UniProt P12497); test: FRET-HIV-1 assay, co-transfected Cos-7 cells
# [2] = biological target: HIV-PRT26A^YFP (HIV-1 (HIV-1NL4-3)) (UniProt P12497); test: FRET-HIV-1 assay, co-transfected Cos-7 cells
# [3] = biological target: YFP-tagged wild-type HIV-1 protease subunit (PRWT^YFP) (HIV-1 (HIV-1NL4-3)) (UniProt P12497); test: FRET, acceptor photobleaching, co-transfected Cos-7 cells (n=23)
# [4] = biological target: YFP-tagged wild-type HIV-1 protease subunit (PRWT^YFP) (HIV-1 (HIV-1NL4-3)) (UniProt P12497); test: FRET, acceptor photobleaching, co-transfected Cos-7 cells, no-drug control of FIG. 2F
# [5] = biological target: YFP-tagged wild-type HIV-1 protease subunit (PRWT^YFP) (HIV-1 (HIV-1NL4-3)) (UniProt P12497); test: FRET, acceptor photobleaching, co-transfected Cos-7 cells, no-drug control of FIG. 2D
# [6] = biological target: YFP-tagged wild-type HIV-1 protease subunit (PRWT^YFP) (HIV-1 (HIV-1NL4-3)) (UniProt P12497); test: FRET, acceptor photobleaching, co-transfected Cos-7 cells
# [7] = biological target: HIV-PRD29N^YFP (HIV-1 (HIV-1NL4-3)) (UniProt P12497); test: FRET-HIV-1 assay, co-transfected Cos-7 cells
# [8] = biological target: HIV-PRD29A^YFP (HIV-1 (HIV-1NL4-3)) (UniProt P12497); test: FRET-HIV-1 assay, co-transfected Cos-7 cells
substance,measurement,setting,value
HIV-PRR87K^CFP (from UniProt P12497) (enzyme),average CFP A/B ratio,[1],< 1
HIV-PRT26A^CFP (from UniProt P12497) (enzyme),average CFP A/B ratio,[2],< 1
CFP-tagged wild-type HIV-1 protease subunit (PRWT^CFP) (from UniProt P12497) (enzyme),CFP^A/B ratio,[3],1.24
same,YFP^A/B ratio,[3],0.47
same,FRET ratio,[4],1.29
same,ratio of ECFP fluorescence after photobleaching to before photobleaching,[5],1.27
same,CFP^A/B ratio,[6],1.38
same,YFP^A/B ratio,[6],0.17
same,ratio of CFP fluorescence after photobleaching to CFP fluorescence prior to photobleaching,[6],1.19
HIV-PRD29N^CFP (from UniProt P12497) (enzyme),average CFP A/B ratio,[7],< 1
HIV-PRD29A^CFP (from UniProt P12497) (enzyme),average CFP A/B ratio,[8],< 1
